Columns and labels:
Settings in all cases: glycan lost; control: wild type
[1] = whole cell patch clamp, inactivating current type
[2] = whole cell patch clamp, noninactivating current type
[3] = Western blot of purified Kv3.1
[4] = whole cell patch clamp, 2 s pulse, +40 mV
[5] = whole cell patch clamp, inactivating current type, +40 mV
[6] = train of five +40 mV pulses, whole cell
[7] = whole cell patch clamp, current pattern classification
[8] = whole cell patch clamp, noninactivating current type, +40 mV

B1: Kv3.1: N220Q/N229Q (protein)
parent chain: MGQGDESERIVINVGGTRHQTYRSTLRTLPGTRLAWLAEPDAHSHFDYDPRADEFFFDRHPGVFAHILNYYRTGKLHCPADVCGPLYEEELAFWGIDETDVEPCCWMTYRQHRDAEEALDSFGGAPLDNSADDADADGPGDSGDGEDELEMTKRLALSDSPDGRPGGFWRRWQPRIWALFEDPYSSRYARYVAFASLFFILVSITTFCLETHERFNPIVNKTEIENVRNGTQVRYYREAETEAFLTYIEGVCVVWFTFEFLMRVVFCPNKVEFIKNSLNIIDFVAILPFYLEVGLSGLSSKAAKDVLGFLRVVRFVRILRIFKLTRHFVGLRVLGHTLRASTNEFLLLIIFLALGVLIFATMIYYAERIGAQPNDPSASEHTHFKNIPIGFWWAVVTMTTLGYGDMYPQTWSGMLVGALCALAGVLTIAMPVPVIVNNFGMYYSLAMAKQKLPKKKKKHIPRPPQLGSPNYCKSVVNSPHHSTQSDTCPLAQEEILEINRADSKLNGEVAKAALANEDCPHIDQALTPDEGLPFTRSGTRERYGPCFLLSTGEYACPPGGGMRKDLCKESPVIAKYMPTEAVRVT
- other: channel current deactivation time constant, other: τoff [1]: increases, 6.0±0.3 vs 4.1±0.2
- other: channel current, G-V slope factor, other: dV [1]: no change, 9.6±0.3 vs 10.5±0.5
- other: channel current, voltage of half activation, other: V0.5 [1]: no change, 8.1±0.6 vs 10.1±0.7
- other: channel current deactivation time constant, other: τoff [2]: increases, 5.6±0.2 vs 3.6±0.1
- other: channel current, G-V slope factor, other: dV [2]: no change, 18.7±0.5 vs 22.6±0.4
- other: channel current, voltage of half activation, other: V0.5 [2]: no change, 22.3±0.4 vs 28.1±0.7
- expression_or_secretion [3]: no change
- other: channel current remaining after 2 s pulse (inactivation), other: % current remaining [4]: increases, 62.3±3.1 vs 51.0±2.3
- other: channel current activation time constant, other: τon [5]: increases, 7.5±0.8 vs 4.0±0.3
- other: channel current rise time, other: rise time [5]: increases, 15.9±1.5 vs 8.6±0.5
- other: peak current remaining after repetitive depolarization [6]: decreases
- other: share of inactivating whole cell current type, other: % inactivating current type [7]: increases, 68% vs 36%
- other: channel current activation time constant, other: τon [8]: increases, 7.4±1.2 vs 1.6±0.2
- other: channel current rise time, other: rise time [8]: increases, 10.2±1.5 vs 3.5±0.2

B2: Kv3.1: N220Q (protein)
parent chain: B1 parent chain
- other: channel current deactivation time constant, other: τoff [1]: no change, 4.7±0.4 vs 4.1±0.2
- other: channel current, G-V slope factor, other: dV [1]: no change, 9.9±0.4 vs 10.5±0.5
- other: channel current, voltage of half activation, other: V0.5 [1]: no change, 9.2±0.8 vs 10.1±0.7
- other: channel current deactivation time constant, other: τoff [2]: no change, 4.0±0.3 vs 3.6±0.1
- other: channel current, G-V slope factor, other: dV [2]: no change, 19.8±0.6 vs 22.6±0.4
- other: channel current, voltage of half activation, other: V0.5 [2]: no change, 30.7±0.6 vs 28.1±0.7
- expression_or_secretion [3]: no change
- other: channel current remaining after 2 s pulse (inactivation), other: % current remaining [4]: increases, 60.2±2.7 vs 51.0±2.3
- other: channel current activation time constant, other: τon [5]: no change, 5.3±1.0 vs 4.0±0.3
- other: channel current rise time, other: rise time [5]: increases, 10.6±0.9 vs 8.6±0.5
- other: share of inactivating whole cell current type, other: % inactivating current type [7]: increases, 65% vs 36%
- other: channel current activation time constant, other: τon [8]: no change, 1.4±0.4 vs 1.6±0.2
- other: channel current rise time, other: rise time [8]: no change, 3.2±0.4 vs 3.5±0.2

B3: Kv3.1: N229Q (protein)
parent chain: B1 parent chain
- other: channel current deactivation time constant, other: τoff [1]: increases, 5.1±0.2 vs 4.1±0.2
- other: channel current, G-V slope factor, other: dV [1]: no change, 10.8±0.7 vs 10.5±0.5
- other: channel current, voltage of half activation, other: V0.5 [1]: no change, 13.1±0.8 vs 10.1±0.7
- other: channel current deactivation time constant, other: τoff [2]: no change, 3.9±0.2 vs 3.6±0.1
- other: channel current, G-V slope factor, other: dV [2]: no change, 24.3±0.6 vs 22.6±0.4
- other: channel current, voltage of half activation, other: V0.5 [2]: no change, 27.5±0.5 vs 28.1±0.7
- expression_or_secretion [3]: no change
- other: channel current remaining after 2 s pulse (inactivation), other: % current remaining [4]: increases, 64.8±4.1 vs 51.0±2.3
- other: channel current activation time constant, other: τon [5]: increases, 6.6±0.9 vs 4.0±0.3
- other: channel current rise time, other: rise time [5]: increases, 12.7±1.6 vs 8.6±0.5
- other: share of inactivating whole cell current type, other: % inactivating current type [7]: no change, 29% vs 36%
- other: channel current activation time constant, other: τon [8]: no change, 1.2±0.1 vs 1.6±0.2
- other: channel current rise time, other: rise time [8]: no change, 3.1±0.1 vs 3.5±0.2

Source: PMC3082577
